T1: EsCas13d, nuclease-dead (Eubacterium siraeum, UniProt B0MS50, R295A;H300A;R849A;H854A)
T1 sequence: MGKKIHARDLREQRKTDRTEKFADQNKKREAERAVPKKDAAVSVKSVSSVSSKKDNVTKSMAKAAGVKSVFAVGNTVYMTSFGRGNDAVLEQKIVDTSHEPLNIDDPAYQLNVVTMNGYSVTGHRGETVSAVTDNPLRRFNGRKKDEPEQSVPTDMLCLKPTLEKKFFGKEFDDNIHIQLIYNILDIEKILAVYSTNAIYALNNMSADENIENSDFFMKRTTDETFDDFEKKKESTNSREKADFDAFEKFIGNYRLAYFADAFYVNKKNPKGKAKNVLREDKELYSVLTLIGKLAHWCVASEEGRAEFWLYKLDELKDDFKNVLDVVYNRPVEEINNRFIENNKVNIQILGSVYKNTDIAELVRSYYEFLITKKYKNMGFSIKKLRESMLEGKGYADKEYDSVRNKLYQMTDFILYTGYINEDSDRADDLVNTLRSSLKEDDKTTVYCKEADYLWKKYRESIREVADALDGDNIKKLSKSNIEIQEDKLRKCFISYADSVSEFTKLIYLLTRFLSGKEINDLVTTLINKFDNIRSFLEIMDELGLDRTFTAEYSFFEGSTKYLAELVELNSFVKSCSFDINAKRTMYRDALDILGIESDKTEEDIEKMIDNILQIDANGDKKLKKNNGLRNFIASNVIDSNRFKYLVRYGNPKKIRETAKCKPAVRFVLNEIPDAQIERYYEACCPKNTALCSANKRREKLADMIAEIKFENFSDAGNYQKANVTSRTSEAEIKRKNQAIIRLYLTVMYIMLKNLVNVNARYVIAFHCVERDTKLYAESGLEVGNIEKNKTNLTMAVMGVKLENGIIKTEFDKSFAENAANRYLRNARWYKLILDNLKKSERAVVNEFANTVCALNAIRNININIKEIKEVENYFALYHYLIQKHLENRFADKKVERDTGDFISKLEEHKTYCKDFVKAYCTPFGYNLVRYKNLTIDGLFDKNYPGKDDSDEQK

B1: target 1 A16G,C21A (mixed)
RNA 1: CACCCGUGCAAAAAUGCAGGGGUCUAAAACUGAGCGGAUAACCUCUCUAUGG
RNA 2: GGGAAUGGAUCCACAUCUACGAAUUCGUACAAUAGGGAGGUUAUCCGCUCACCGAGAUCGGAAGAGCACACGU
B2: target 1 A18U,C21A (mixed)
RNA 1: B1 RNA 1
RNA 2: B1 RNA 2 with A34U, G36A
B3: target 1 C6A,C22A (mixed)
RNA 1: B1 RNA 1
RNA 2: B1 RNA 2 with C30A, A31C, G36A, C46A
B4: target 1 insA 3' of 10,insG 3' of 8 (mixed)
RNA 1: B1 RNA 1
RNA 2: GGGAAUGGAUCCACAUCUACGAAUUCGUACCAUAGAGAGGUUAAUGCCGCUCACCGAGAUCGGAAGAGCACACGU
B5: target 1 insC 3' of 10,insA 3' of 10 (mixed)
RNA 1: B1 RNA 1
RNA 2: B4 RNA 2 with A43C, U45A, G46U
B6: target 1 insG 3' of 14,insA 3' of 13 (mixed)
RNA 1: B1 RNA 1
RNA 2: B4 RNA 2 with U41A, U42G, A43U, A44U, U45A, G46U
B7: target 1 insC 3' of 17,insA 3' of 7 (mixed)
RNA 1: B1 RNA 1
RNA 2: B4 RNA 2 with A36C, G37A, A38G, G39A, U41G, A43U, G46C, C47A
B8: target 1 insA 3' of 13,insA 3' of 7 (mixed)
RNA 1: B1 RNA 1
RNA 2: B4 RNA 2 with G40A, U41G, A43U, G46C, C47A
B9: target 1 del19 (mixed)
RNA 1: B1 RNA 1
RNA 2: GGGAAUGGAUCCACAUCUACGAAUUCGUACCAAGAGAGGUUAUCCGCUCACCGAGAUCGGAAGAGCACACGU
B10: target 1 insA 3' of 21,insU 3' of 14 (mixed)
RNA 1: B1 RNA 1
RNA 2: GGGAAUGGAUCCACAUCUACGAAUUCGUACCAAUAGAGAUGGUUAUCCGCUCACCGAGAUCGGAAGAGCACACGU
B11: target 1 insU 3' of 21,insC 3' of 13 (mixed)
RNA 1: B1 RNA 1
RNA 2: B10 RNA 2 with A32U, U40G, G41C
B12: target 1 U3C,C7U (mixed)
RNA 1: B1 RNA 1
RNA 2: B1 RNA 2 with A31C, G36A, C45U, U49C
B13: target 1 C7G,G15U (mixed)
RNA 1: B1 RNA 1
RNA 2: B1 RNA 2 with A31C, G36A, G37U, C45G
B14: target 1 insU 3' of 21,insG 3' of 16 (mixed)
RNA 1: B1 RNA 1
RNA 2: B10 RNA 2 with A32U, A39G, U40A
B15: target 1 insA 3' of 4 (mixed)
RNA 1: B1 RNA 1
RNA 2: GGGAAUGGAUCCACAUCUACGAAUUCGUACCAUAGAGAGGUUAUCCGCAUCACCGAGAUCGGAAGAGCACACGU
B16: target 1 C4A,G12C (mixed)
RNA 1: B1 RNA 1
RNA 2: B1 RNA 2 with A31C, G36A, G40C, C48A
B17: target 1 del15,del20 (mixed)
RNA 1: B1 RNA 1
RNA 2: GGGAAUGGAUCCACAUCUACGAAUUCGUACCUAGAAGGUUAUCCGCUCACCGAGAUCGGAAGAGCACACGU
B18: target 1 insU 3' of 17,insG 3' of 3 (mixed)
RNA 1: B1 RNA 1
RNA 2: GGGAAUGGAUCCACAUCUACGAAUUCGUACCAUAGUAGAGGUUAUCCGCUGCACCGAGAUCGGAAGAGCACACGU
B19: target 1 C2U,G12U (mixed)
RNA 1: B1 RNA 1
RNA 2: B1 RNA 2 with A31C, G36A, G40U, C50U
B20: target 1 G5U,U10A (mixed)
RNA 1: B1 RNA 1
RNA 2: B1 RNA 2 with A31C, G36A, U42A, G47U
B21: target 1 C7G,U10A (mixed)
RNA 1: B1 RNA 1
RNA 2: B1 RNA 2 with A31C, G36A, U42A, C45G
B22: target 1 insG 3' of 6,insG 3' of 1 (mixed)
RNA 1: B1 RNA 1
RNA 2: GGGAAUGGAUCCACAUCUACGAAUUCGUACCAUAGAGAGGUUAUCCGGCUCAGCCGAGAUCGGAAGAGCACACGU
B23: target 1 G5A,C6U (mixed)
RNA 1: B1 RNA 1
RNA 2: B1 RNA 2 with A31C, G36A, C46U, G47A
B24: target 1 insC 3' of 11,insC 3' of 9 (mixed)
RNA 1: B1 RNA 1
RNA 2: B4 RNA 2 with U42C, A43U, U45C, G46U
B25: target 1 insG 3' of 14,insU 3' of 9 (mixed)
RNA 1: B1 RNA 1
RNA 2: B4 RNA 2 with U41G, A43U, G46U
B26: target 1 C6U,G17A (mixed)
RNA 1: B1 RNA 1
RNA 2: B1 RNA 2 with A31C, G35A, G36A, C46U
B27: target 1 C4A,A18G (mixed)
RNA 1: B1 RNA 1
RNA 2: B1 RNA 2 with A31C, A34G, G36A, C48A
B28: target 1 G17C,C22A (mixed)
RNA 1: B1 RNA 1
RNA 2: B1 RNA 2 with C30A, A31C, G35C, G36A
B29: target 1 insU 3' of 18,insA 3' of 5 (mixed)
RNA 1: B1 RNA 1
RNA 2: B18 RNA 2 with G35U, U36G, C49A, U50C, G51U
B30: target 1 G13A,G17A (mixed)
RNA 1: B1 RNA 1
RNA 2: B1 RNA 2 with A31C, G35A, G36A, G39A
B31: target 1 insU 3' of 9,insA 3' of 3 (mixed)
RNA 1: B1 RNA 1
RNA 2: B22 RNA 2 with C45U, G47C, C51A, A52C, G53A
B32: target 1 A18U,U19C (mixed)
RNA 1: B1 RNA 1
RNA 2: B1 RNA 2 with A31C, U33C, A34U, G36A

Drawing on paper PMC10786891, “Massively parallel profiling of RNA-targeting CRISPR-Cas13d”, this text covers Kd for 32 molecules.

Positions count from the first letter of the chain named. Names and notes keep the numbering of the source.

Usually Kd stands for the equilibrium constant for the complex coming apart. A higher Kd goes with weaker binding.

This series addresses T1, EsCas13d, nuclease-dead. Kind of series: crRNA (strand 1, pre-loaded); Mg2+; 40 mM Tris-HCl pH 7.5, 150 mM NaCl, 6 mM MgCl2, 1 mM DTT, 0.1% Tween-20, 0.2 mg/ml BSA; 25 C; 10 min per concentration, then washed. The following applies: tags: His6-TwinStrep-SUMO cleaved; N-terminal SNAP kept (SNAP-Surface 488); label: 3' end held by stalled T7 RNA polymerase.
On to B1, for which the Kd turned out to be 48 ± 11 nM. Under B2 stands 56 ± 6 nM; under B3, 10.5 ± 0.6 nM; under B4, 10.1 ± 0.5 nM. For B5, the Kd was determined as 13.5 ± 1 nM. Under B6 stands 10.9 ± 0.5 nM. The molecule B7 returned a Kd of 38 ± 4 nM. Take B8: the Kd came out at 4.06 ± 0.21 nM. The molecule B9 registered a Kd of 26.4 ± 2.2 nM.

B10 showed a Kd of 49 ± 11 nM. B11: the Kd amounted to 32 ± 4 nM. B12 gave a Kd of 19.6 ± 2.2 nM. For B13, the equilibrium dissociation constant (Kd) was determined as 30 ± 4 nM. The same measure for B14: 87 ± 23 nM.

Take B15: the affinity, expressed as Kd, was 8.5 ± 1.1 nM. Under B16 stands 31 ± 8 nM; under B17, 90 ± 40 nM; under B18, 23.4 ± 2.7 nM.

In turn, B19 gave a dissociation constant Kd of 10.5 ± 0.5 nM.

B20 showed a Kd of 95 ± 22 nM. The same measure for B21: 11.7 ± 0.5 nM; for B22: 5.7 ± 0.4 nM; for B23: 13.1 ± 0.8 nM. For B24, the Kd came out at 29.4 ± 2.5 nM.

For the molecule B25, the affinity, expressed as Kd, was 81 ± 28 nM. Take B26: the affinity, expressed as Kd, was 42 ± 4 nM. Under B27 stands 68 ± 16 nM; under B28, around 60 nM; under B29, 23.7 ± 2.6 nM.

The molecule B30 had a dissociation constant (Kd) of 66 ± 19 nM.

The molecule B31 gave a Kd of 13.1 ± 0.7 nM. The same measure for B32: 64 ± 16 nM.
